Data published in doi:10.1101/2024.12.09.627633 (bioRxiv, 2024).

Target: the molecule itself
Experiment: thioflavin T fluorescence of in vitro polymerisation; CAF domains 30 uM polymerised at 37 C with shaking at 200 rpm; ThT added at each time point; excitation 444 nm, emission 480 nm

B1: CAF domain (residues 148-223) of G175S human PMEL (domain or fragment, UniProt P40967 148-223, looked up)
chain: SFVYVWKTWGQYWQVLGGPVSGLSIGTSRAMLGTHTMEVTVYHRRGSRSYVPLAHSSSAFTITDQVPFSVSVSQLR
notes: PMEL, human, CAF (core amyloid-forming) domain, residues 148-223, with the G175S mutation linked to pigment dispersion syndrome; Polymerised in vitro in 150 mM sodium acetate pH 4.4 into two-protofilament fibrils; also called G175S CAF domain; G175S mutant; source: E. coli BL21 (DE3), pET24a, inclusion bodies, purified (Ni-NTA in 8M urea)
fold final yield of polymerized amyloids against the wild type: ~4 fold
fold rate of polymerisation against the wild type: ~4 fold
